Source: IntAct's records for PubMed 20067578

B1: Dual specificity mitogen-activated protein kinase kinase 6 (Homo sapiens), P52564 (parent)
chain: MSQSKGKKRNPGLKIPKEAFEQPQTSSTPPRDLDSKACISIGNQNFEVKADDLEPIMELGRGAYGVVEKMRHVPSGQIMAVKRIRATVNSQEQKRLLMDLDISMRTVDCPFTVTFYGALFREGDVWICMELMDTSLDKFYKQVIDKGQTIPEDILGKIAVSIVKALEHLHSKLSVIHRDVKPSNVLINALGQVKMCDFGISGYLVDSVAKTIDAGCKPYMAPERINPELNQKGYSVKSDIWSLGITMIELAILRFPYDSWGTPFQQLKQVVEEPSPQLPADKFSAEFVDFTSQCLKKNSKERPTYPELMQHPFFTLHESKGTDVASFVKLILGD

Variants of: B1
Details: with lrrk2_human LRRK2, Q5S007
Chain of lrrk2_human LRRK2, Q5S007 (Q5S007 whole entry): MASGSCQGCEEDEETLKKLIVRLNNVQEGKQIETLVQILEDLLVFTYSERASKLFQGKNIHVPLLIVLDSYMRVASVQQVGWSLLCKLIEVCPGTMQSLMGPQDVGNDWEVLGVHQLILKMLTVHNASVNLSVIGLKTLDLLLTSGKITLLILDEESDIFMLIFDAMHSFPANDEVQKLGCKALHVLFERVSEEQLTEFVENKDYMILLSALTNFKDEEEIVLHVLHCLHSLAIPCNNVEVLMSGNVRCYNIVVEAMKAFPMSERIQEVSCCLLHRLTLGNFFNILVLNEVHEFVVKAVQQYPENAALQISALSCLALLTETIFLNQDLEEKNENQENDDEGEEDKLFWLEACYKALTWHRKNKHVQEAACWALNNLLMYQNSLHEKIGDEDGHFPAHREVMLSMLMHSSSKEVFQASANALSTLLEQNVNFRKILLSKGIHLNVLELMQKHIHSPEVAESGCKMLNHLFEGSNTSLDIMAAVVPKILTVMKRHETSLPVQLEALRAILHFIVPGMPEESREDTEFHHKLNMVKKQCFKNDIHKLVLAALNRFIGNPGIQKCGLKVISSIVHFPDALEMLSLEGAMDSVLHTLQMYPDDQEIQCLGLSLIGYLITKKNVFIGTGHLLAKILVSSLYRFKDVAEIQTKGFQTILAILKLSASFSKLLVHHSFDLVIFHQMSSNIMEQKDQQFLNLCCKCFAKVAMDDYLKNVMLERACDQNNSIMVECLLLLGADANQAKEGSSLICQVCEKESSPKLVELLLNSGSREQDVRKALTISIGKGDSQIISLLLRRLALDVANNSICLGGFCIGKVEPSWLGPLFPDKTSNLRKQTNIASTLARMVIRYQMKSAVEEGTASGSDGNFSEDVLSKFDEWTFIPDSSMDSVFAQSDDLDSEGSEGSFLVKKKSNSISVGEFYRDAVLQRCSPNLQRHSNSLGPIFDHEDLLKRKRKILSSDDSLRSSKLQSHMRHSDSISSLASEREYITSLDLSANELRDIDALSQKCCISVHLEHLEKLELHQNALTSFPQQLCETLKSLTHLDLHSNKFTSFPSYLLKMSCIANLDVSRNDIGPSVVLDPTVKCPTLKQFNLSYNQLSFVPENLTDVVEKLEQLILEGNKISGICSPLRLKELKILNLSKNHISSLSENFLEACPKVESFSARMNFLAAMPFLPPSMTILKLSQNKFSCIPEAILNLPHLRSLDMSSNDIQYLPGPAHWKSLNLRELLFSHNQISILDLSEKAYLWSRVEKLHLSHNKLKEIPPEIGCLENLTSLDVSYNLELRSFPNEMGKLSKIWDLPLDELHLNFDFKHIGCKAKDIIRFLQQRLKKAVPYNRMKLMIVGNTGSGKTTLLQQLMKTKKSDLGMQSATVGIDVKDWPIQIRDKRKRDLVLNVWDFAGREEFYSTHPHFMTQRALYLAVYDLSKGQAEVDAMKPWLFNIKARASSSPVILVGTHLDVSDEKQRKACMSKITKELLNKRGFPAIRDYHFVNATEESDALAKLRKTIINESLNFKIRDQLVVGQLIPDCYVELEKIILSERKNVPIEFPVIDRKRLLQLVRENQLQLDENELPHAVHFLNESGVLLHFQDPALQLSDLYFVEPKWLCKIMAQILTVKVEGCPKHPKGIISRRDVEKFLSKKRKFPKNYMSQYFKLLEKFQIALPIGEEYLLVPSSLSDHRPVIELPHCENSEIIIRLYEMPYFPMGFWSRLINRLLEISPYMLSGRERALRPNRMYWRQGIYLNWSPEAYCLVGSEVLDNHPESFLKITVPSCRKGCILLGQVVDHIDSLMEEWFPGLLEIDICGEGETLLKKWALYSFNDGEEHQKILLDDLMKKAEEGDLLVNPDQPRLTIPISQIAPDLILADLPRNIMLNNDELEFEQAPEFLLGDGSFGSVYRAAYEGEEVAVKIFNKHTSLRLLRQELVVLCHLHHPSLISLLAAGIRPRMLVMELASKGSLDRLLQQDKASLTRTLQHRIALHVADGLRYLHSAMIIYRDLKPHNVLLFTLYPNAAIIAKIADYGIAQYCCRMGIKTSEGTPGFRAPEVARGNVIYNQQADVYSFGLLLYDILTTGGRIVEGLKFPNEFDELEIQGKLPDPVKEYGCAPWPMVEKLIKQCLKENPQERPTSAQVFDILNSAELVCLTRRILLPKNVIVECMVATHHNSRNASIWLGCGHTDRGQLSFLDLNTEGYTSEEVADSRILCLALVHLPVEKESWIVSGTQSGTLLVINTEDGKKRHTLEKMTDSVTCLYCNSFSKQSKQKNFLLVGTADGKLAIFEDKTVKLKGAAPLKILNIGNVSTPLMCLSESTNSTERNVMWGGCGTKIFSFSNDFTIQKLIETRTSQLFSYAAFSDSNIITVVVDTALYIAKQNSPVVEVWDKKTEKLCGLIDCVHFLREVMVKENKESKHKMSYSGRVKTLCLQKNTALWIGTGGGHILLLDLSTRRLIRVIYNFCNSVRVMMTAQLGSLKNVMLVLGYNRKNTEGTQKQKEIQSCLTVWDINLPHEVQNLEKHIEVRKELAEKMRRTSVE

| effect of a mutation on the interaction | Variant |
| --- | --- |
| decreasing interaction | K82A |
